In PMC3531493, “Inhibition of a NEDD8 Cascade Restores Restriction of HIV by APOBEC3G” (PLoS Pathogens, 2012):

T1: UBE2F, full-length (UniProt Q969M7 1-185)
T1 construct: UBE2F, NEDD8-conjugating enzyme, full-length; Unlabelled in the HSQC experiments on 15N-labelled RBX2 RING; also called NEDD8 E2; NEDD8-conjugating enzyme UBE2F; source: E. coli BL21(DE3)-Star or BL21(DE3), purified (Ni-NTA, TEV cleavage, SEC)
T1 sequence (looked up): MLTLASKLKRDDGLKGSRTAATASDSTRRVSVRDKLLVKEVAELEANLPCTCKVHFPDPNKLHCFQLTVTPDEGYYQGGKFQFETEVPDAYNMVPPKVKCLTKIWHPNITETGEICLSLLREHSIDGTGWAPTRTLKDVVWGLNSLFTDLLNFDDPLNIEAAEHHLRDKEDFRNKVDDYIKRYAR

T2: UBE2F residues 26-185 (UBE2F core) (UniProt Q969M7 26-185)
T2 construct: UBE2F, residues 26-185 (UBE2F core); Unlabelled when added to 15N RBX2 RING; 15N-labelled when RBX2 RING was added to it; source: E. coli BL21(DE3)-Star or BL21(DE3), purified (Ni-NTA, TEV cleavage, SEC)
T2 sequence (looked up): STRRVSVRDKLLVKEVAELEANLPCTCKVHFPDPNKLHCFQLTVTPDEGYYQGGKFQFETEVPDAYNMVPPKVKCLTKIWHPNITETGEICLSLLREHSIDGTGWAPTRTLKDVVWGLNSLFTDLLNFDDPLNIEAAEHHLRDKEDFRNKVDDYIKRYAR


How the values were obtained:
[1] = biological target: CUL5/RBX2 complex (UniProt Q93034)
Chain of CUL5/RBX2 complex (Q93034 whole entry, one chain of several): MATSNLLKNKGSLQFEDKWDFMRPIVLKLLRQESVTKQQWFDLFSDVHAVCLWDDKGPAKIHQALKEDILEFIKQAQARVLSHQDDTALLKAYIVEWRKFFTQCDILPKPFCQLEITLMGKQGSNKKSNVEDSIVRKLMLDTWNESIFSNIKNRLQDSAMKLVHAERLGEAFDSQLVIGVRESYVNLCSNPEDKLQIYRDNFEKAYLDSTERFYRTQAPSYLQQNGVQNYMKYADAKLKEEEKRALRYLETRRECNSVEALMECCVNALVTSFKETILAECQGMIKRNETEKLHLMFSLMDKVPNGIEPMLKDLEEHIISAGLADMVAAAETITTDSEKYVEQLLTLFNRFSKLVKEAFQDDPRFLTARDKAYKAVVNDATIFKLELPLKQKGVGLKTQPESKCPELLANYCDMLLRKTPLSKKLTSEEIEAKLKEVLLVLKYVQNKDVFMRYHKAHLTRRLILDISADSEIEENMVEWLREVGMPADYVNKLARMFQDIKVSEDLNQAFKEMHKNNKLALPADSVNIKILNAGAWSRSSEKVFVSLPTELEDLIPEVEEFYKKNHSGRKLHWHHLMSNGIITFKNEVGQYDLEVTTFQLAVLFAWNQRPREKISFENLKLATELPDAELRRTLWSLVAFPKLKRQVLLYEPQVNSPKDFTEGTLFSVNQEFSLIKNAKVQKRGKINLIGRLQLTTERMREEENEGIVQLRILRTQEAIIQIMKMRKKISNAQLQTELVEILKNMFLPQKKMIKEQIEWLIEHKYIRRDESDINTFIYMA

[2] = biological target: T1, UBE2F, full-length; experiment: NMR titration; 15N-HSQC of 50 µM 15N-labelled RBX2 RING with unlabelled E2 added (∼100 µM in Fig. 3D; increasing concentrations in Fig. 5D); 20°C; 100 mM NaCl, 1 mM DTT, 25 mM HEPES pH 7.5; settings: both partners purified
[3] = biological target: T2, UBE2F residues 26-185 (UBE2F core); experiment: as above; settings: both partners purified

| Molecule | rate of NEDD8 transfer from UBE2F mutant to CUL5/RBX2 (pulse-chase), against wild-type UBE2F (orders of magnitude (reduction)) [1] | binding result [2] | binding result [3] |
| --- | --- | --- | --- |
| UBE2F (N92A) (from UniProt Q969M7 26-185) (enzyme) | 3 | – | – |
| RBX2 RING domain (44-113) (domain or fragment, UniProt Q9UBF6 44-113, looked up, RBX2 (RING-box protein 2), RING domain, residues 44-113; 15N-labelled when the E2 enzymes were added to it; unlabelled when added to 15N UBE2F core; also called RBX2 core domain; source: E. coli BL21(DE3)-Star or BL21(DE3), with ZnCl2, purified (Ni-NTA, TEV cleavage, SEC)) DVECDTCAICRVQVMDACLRCQAENKQEDCVVVWGECNHSFHNCCMSLWVKQNNRCPLCQQDWVVQRIGK | – | binds | binds |
